Where no end group is shown, it is not given here.
T1: human LAG-3 (cell surface) (human, UniProt P18627 23-525)
T1 construct: whole, on cells; also called CHO-human LAG-3
T1 sequence (looked up): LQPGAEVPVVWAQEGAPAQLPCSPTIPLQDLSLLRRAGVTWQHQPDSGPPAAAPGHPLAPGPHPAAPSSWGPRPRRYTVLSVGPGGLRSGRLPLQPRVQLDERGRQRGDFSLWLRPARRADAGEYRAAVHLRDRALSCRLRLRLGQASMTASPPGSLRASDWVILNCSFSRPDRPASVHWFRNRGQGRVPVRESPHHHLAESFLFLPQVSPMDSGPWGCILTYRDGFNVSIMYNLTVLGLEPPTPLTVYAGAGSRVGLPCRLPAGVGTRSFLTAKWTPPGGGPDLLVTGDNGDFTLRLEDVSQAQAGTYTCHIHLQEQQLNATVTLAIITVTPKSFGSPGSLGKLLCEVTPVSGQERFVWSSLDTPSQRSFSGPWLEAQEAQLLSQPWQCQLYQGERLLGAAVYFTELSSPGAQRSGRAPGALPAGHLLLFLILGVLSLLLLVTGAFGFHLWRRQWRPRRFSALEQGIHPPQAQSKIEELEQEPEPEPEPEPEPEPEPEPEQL

T2: rhesus monkey LAG-3 full length extra loop peptide (rhesus monkey)
T2 construct: Used in a 'similar peptide ELISA'; Biotinylation is not restated for this peptide; also called Rhesus Extra Loop
T2 peptide: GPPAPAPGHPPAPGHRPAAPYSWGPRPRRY

T3: LAG-3 extra loop scan peptide PHPAAPSSWGPR (human, also: conjugated to biotin)
T3 construct: 12-mer overlapping scan peptide of the extra loop
T3 peptide: PHPAAPSSWGPR

T4: LAG-3 extra loop scan peptide PAAPSSWGPRPR (human, also: conjugated to biotin)
T4 construct: 12-mer overlapping scan peptide of the extra loop
T4 peptide: PAAPSSWGPRPR

T5: LAG-3 extra loop scan peptide PGPHPAAPSSWG (human, also: conjugated to biotin)
T5 construct: 12-mer overlapping scan peptide of the extra loop
T5 peptide: PGPHPAAPSSWG


Experiments:
[1] = target: T1, human LAG-3 (cell surface); assay: flow cytometry, CHO cells expressing human LAG-3
Description: (§1) To test the ability of the antibodies to bind to cell surface LAG-3 protein, the antibodies were incubated with a CHO cell line that had been transfected to express human LAG-3 on the cell surface. The 25F7, 26H10, 25E3, 8B7, 11F2 and 17E5 monoclonal antibodies were serially diluted with cold lx PFAE buffer (1×PBS+2% FBS, 0.02% sodium azide, 2 mM Na EDTA). For the binding reaction, 50 μl of diluted antibody solution was added to a 50 μl cell suspension containing 2×10⁵ cells and the mixture was incubated on ice for 30 minutes. The cells were then washed two times with 1×PFAE buffer. A 1:100 dilution of FITC-labeled goat anti-human kappa light chain antibody (Bethyl Laboratories, Inc., Cat. # A80-115F) was added and the mixture was incubated for 30 minutes at 4° C., followed by washing twice with cold 1×PFAE buffer. After the final wash, 150 μl of cold 1×PFAE containing 10 μg/mL propidium iodide (Roche Applied Science, Cat #1 348 639) was added to each solution and analysis of antibody binding was carried out by flow cytometry using a FACScalibur flow cytometer (BD Bioscience).

[2] = target: T2, rhesus monkey LAG-3 full length extra …; assay: ELISA on rhesus full length extra loop peptide
Description: To further examine binding of these antibodies to the extra loop peptide region, additional ELISA assays were performed. In an ELISA assay using the human full-length extra loop peptide (SEQ ID NO: 79), EC₅₀ values for binding were determined for 25E3, 25F7 and 8B7. Additionally, a similar peptide ELISA was conducted using the full length extra loop peptide sequence from rhesus monkey LAG-3, having the sequence […] (SEQ ID NO: 90), and EC₅₀ values for binding were determined for 25F7 and 8B7. […] Moreover, antibodies 25F7 and 8B7 also bind to the rhesus LAG-3 extra loop peptide region, albeit less well compared to the human sequence, which may be due to the species sequence divergence in this polypeptide. The results also confirm that the 26H10 antibody is not capable of recognizing the LAG-3 extra loop peptide.

[3] = target: T1, human LAG-3 (cell surface); assay: flow cytometry, activated human CD4+ T cells
Description: as §1
To test the ability of the antibodies to bind to native human LAG-3 on the surface of activated human T cells, resting CD4⁺ T cells were isolated from purified peripheral blood mononuclear cells and subjected to three days of stimulation with a combination of anti-CD3 and anti-CD28 antibodies affixed to polystyrene beads. The 25F7, 8B7 and 26H10 monoclonal antibodies were serially diluted with cold 1×PFAE buffer (1×PBS+2% FBS, 0.02% sodium azide, 2 mM Na EDTA). For the binding reaction, 50 μl of diluted antibody solution was mixed with 50 μl of PE-labeled anti-human CD4 (BD Bioscience, Cat # 555347). Activated T cells were processed by the same protocol described above. The analysis of antibody binding was conducted as described above.

[4] = target: T3, LAG-3 extra loop scan peptide …; assay: peptide scan ELISA
Description: (§2) In the LAG-3 protein, the immunoglobulin-like first domain of the extracellular region contains an exposed “extra loop” having the amino acid sequence: […] (SEQ ID NO: 79). To examine the binding of 25E3, 25F7, 8B7 and 26H10 to this region of LAG-3, and map the epitope bound by each antibody, a peptide scan experiment was performed across this region. A series of 10 overlapping peptides that scanned across the full length of the extra loop sequence were prepared and conjugated to biotin. For ELISA analysis, microtiter plates pre-coated with streptavidin (Sigma-Aldrich, Cat # M5432) were used to capture the biotinylated loop peptide-conjugates applied in a 100 μl volume at a concentration of 2 μg/mL and incubated 18 hours at 4° C., after which the plates were washed 3 times and blocked at room temperature for 1 hour with blocking buffer (1×PBS+10% FBS). Next, human anti-LAG-3 antibodies serially diluted 3-fold in blocking buffer from 10 μg/mL were applied and the plates were incubated at room temperature for 2 hours and then washed three times. To detect bound human antibody a HRP-conjugated goat anti-human kappa light chain antibody (Bethyl Laboratories, Cat # A80-115P) was diluted to 1 μg/mL in blocking buffer and applied to assay wells for 1 hour followed by three washes and application of TMB substrate (eBioscience, Cat #00-4201-56). Optical density readings at 650 nm wavelength were made on a Spectramax 340PC spectrophotometer ([…].).

[5] = target: T4, LAG-3 extra loop scan peptide …; assay: peptide scan ELISA
Description: as §2

[6] = target: T5, LAG-3 extra loop scan peptide …; assay: peptide scan ELISA
Description: as §2

EC50 [1]	EC50 [2]	fold lower EC50 than 25E3 [1]	EC50 [3]	binding result [4]	binding result [5]	binding result [6]	binding result [2]	Binder
14.9 to 25.4 nM								25E3 human monoclonal antibody (antibody, IgG1, V domains shown) VH: EVQLVESGGGVVRPGGSLRLSCAASGFTFDDYGMSWVRQAPGKGLEWVSGINWNGGSTYYADSVKGRFTISGDNAKNSLYLQMNSLRAEDTALYYCTTGGYWGQGTLVTVSS VL: AIQLTQSPSSLSASVGDRVTITCRASQGIRSALAWYQQKPGKAPKLLIYDASSLESGVPSRFSGSGSGTDFTLTISSLQPEDFATYYCQQFNSYPYTFGQGTKLEIK
0.45 to 2.52 nM	13.1 nM	~20 fold	0.27 to 0.45 nM	binds	binds	binds		25F7 human monoclonal antibody (antibody, IgG1, V domains shown, also called 25F7-FITC (IgG1 version)) VH: QVQLQQWGAGLLKPSETLSLTCAVYGGSFSDYYWNWIRQPPGKGLEWIGEINHNGNTNSNPSLKSRVTLSLDTSKNQFSLKLRSVTAADTAVYYCAFGYSDYEYNWFDPWGQGTLVTVSS VL: EIVLTQSPATLSLSPGERATLSCRASQSISSYLAWYQQKPGQAPRLLIYDASNRATGIPARFSGSGSGTDFTLTISSLEPEDFAVYYCQQRSNWPLTFGQGTNLEIK
1.93 to 4.44 nM	0.6 nM		0.69 to 1.8 nM	binds	binds	binds		8B7 human monoclonal antibody (antibody, IgG4, V domains shown, also called 8B7-FITC) VH: QVQLQQWGAGLLKPSETLSLTCAVYGGSFSGYYWSWIRQPPGKGLEWIGEINHRGNTNCNPSLKSRVTISGDTSKKQFALKLNSVTAADTAVYYCARGYDILTGYYEDSWGPGTLVTVSS VL: EIVLTQSPATLSLSPGERATLSCRASQSVSSYLAWYQQKPGQAPRLLIYNASNRATGIPARFSGSGSGTDFTLTISSLEPEDFAVYYCQQRSNWPLTFGGGTKVEIK
1.81 to 3.64 nM			0.41 to 0.84 nM	no binding (tested: 10 µg/mL)	no binding (tested: 10 µg/mL)	no binding (tested: 10 µg/mL)	no binding	26H10 human monoclonal antibody (antibody, IgG1, V domains shown, also called 26H10-FITC) VH: QVQLVESGGGVVQPGRSLRLSCAASGFTFSSYGMHWVRQAPGKGLEWVAVIWYDGSNKYYADSVKGRFTISRDNSKNTLYLQMNSLRAEDTAVYYCAREWAVASWDYGMDVWGQGTTVTVSS VL: not shown
